The target of assay [1] is T1, human calcitonin receptor (human, UniProt P30988 25-474).
T1 construct: whole, on cells; Assayed as cell membranes of BHK tk'ts 13 cells stably transfected with the human calcitonin receptor (Assay VII); also called hCTR; hCT
T1 sequence (looked up): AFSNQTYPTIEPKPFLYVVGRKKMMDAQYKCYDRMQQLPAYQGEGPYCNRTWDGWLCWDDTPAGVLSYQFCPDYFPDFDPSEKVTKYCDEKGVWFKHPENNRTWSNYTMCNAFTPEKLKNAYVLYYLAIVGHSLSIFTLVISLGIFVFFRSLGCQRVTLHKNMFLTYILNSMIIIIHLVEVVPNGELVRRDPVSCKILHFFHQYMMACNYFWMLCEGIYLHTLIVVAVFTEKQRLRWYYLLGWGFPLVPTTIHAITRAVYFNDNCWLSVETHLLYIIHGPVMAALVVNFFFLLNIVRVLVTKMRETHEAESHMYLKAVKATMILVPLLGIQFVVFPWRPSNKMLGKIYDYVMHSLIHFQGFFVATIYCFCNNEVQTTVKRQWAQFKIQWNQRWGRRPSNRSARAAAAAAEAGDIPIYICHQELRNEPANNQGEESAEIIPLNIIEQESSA
The assay can be described thus: IC50 at hCTR divided by IC50 at hAmylin-R (SPA competition assays V and VII). As for the experimental part: The resulting pellet was resuspended, homogenized and centrifuged (20.000 rpm, 15 min) in a buffer containing 20 mM Na-HEPES and 0.1 mM EDTA (pH 7.4, buffer 2). The resulting pellet was resuspended in buffer 2 and protein concentration was measured (BCA protein Assay, Pierce). The homogenate was kept cold during the whole procedure. The membranes were kept at −80° C. until use. The assay was performed in a 384 well Optiplate (PerkinElmer) in a total volume of 40 ul. Membranes were mixed with SPA beads. Final concentration of membranes 35 ng/μL final and SPA beads was 0.05 mg/well. Test-compounds were dissolved in DMSO and further diluted in assay buffer (50 mM Hepes, pH 7.4, 1 mM CaCl2, 5 mM MgCl₂, 0.1% OA and 0.02% Tween20). […] The final mixture was incubated with shaking at 400 rpm for 120 min at 25° C. prior to centrifugation (1500 rpm, 10 min). Samples were analyzed on TopCounter™ (Packard). The IC₅₀ was calculated using (one site binding competition analysis) GraphPad Prism5 as a measure of receptor affinity.
Membranes were prepared in the following way; the cells were rinsed with PBS and incubated with Versene for approximately 5 min before harvesting. The cells were flushed with PBS and the cell-suspension was centrifuged for 5 min at 1000 rpm. Cells were homogenized (Ultrathurrax) in a buffer containing 20 mM Na-HEPES and 10 mM EDTA (pH 7.4) and centrifuged at 20.000 rpm for 15 min. The resulting pellet was resuspended, homogenized and centrifuged (20.000 rpm, 15 min) in a buffer containing 20 mM Na-HEPES and 0.1 mM EDTA (pH 7.4, buffer 2). The resulting pellet was resuspended in buffer 2 and protein concentration was measured (BCA protein Assay, Pierce). The homogenate was kept cold during the whole procedure. The membranes were kept at −80° C. until use. Assay was performed in a 384 well Optiplate (PerkinElmer) in a total volume of 40 ul. Membranes were mixed with SPA beads.

Assay [2] has as its target T1, human calcitonin receptor. Description: SPA competition vs 125I-calcitonin, membranes of BHK cells with human calcitonin receptor (Assay VII). As for the experimental part:
Membranes were prepared in the following way; the cells were rinsed with PBS and incubated with Versene for approximately 5 min before harvesting. The cells were flushed with PBS and the cell-suspension was centrifuged for 5 min at 1000 rpm. Cells were homogenized (Ultrathurrax) in a buffer containing 20 mM Na-HEPES and 10 mM EDTA (pH 7.4) and centrifuged at 20.000 rpm for 15 min. The resulting pellet was resuspended, homogenized and centrifuged (20.000 rpm, 15 min) in a buffer containing 20 mM Na-HEPES and 0.1 mM EDTA (pH 7.4, buffer 2). The resulting pellet was resuspended in buffer 2 and protein concentration was measured (BCA protein Assay, Pierce). The homogenate was kept cold during the whole procedure. The membranes were kept at −80° C. until use. Assay was performed in a 384 well Optiplate (PerkinElmer) in a total volume of 40 ul. Membranes were mixed with SPA beads. Final concentration of membranes 35 ng/μL final and Final concentration of SPA beads was 0.05 mg/well. Test-compounds were dissolved in DMSO and further diluted in assay buffer (50 mM Hepes, pH 7.4, 1 mM CaCl2, 5 mM MgCl₂, 0.1% OA and 0.02% Tween20). […] The final mixture was incubated for 120 min with shaking at 400 rpm at 25° C. prior to centrifugation (1500 rpm, 10 min). Samples were analyzed on TopCounter™ (Packard). The […] was calculated using (one site binding competition analysis) GraphPad Prism5 as a measure of receptor affinity.

The IC50 is the point on the concentration scale where inhibition reaches its midpoint.

Numbered stars: 1 amine (or outer) side, 2 acyl side, 3 side chain; on linkers, the order of the positions; unused ones are H or OH. Bridge positions count the residues as written; N and C are the ends. Side chains are listed from the residue outwards. Ends that are not written are not given here. * marks the point of attachment. C20 diacid = O=C(O)CCCCCCCCCCCCCCCCCCC(=O)*; γGlu = O=C(O)[C@H](CCC(=O)[*:2])N[*:1]; AEEA = NCCOCCOCC(=O)O

B1: N^ε1-[2-[2-[2-[[2-[2-[2-[[(4S)-4-carboxy-4-(19-carboxynonadecanoylamino)butanoyl]amino]ethoxy]ethoxy]acetyl]amino]ethoxy]ethoxy]acetyl]-[Arg17,Pro21,Pro27,His34 … (peptide)
peptide: K([AEEA-AEEA-γGlu-C20 diacid])CNTATCATQRLANFLRHSSPNFGAIPSSTNVGHNTY-NH2
modifications: disulfide 2-7; N-terminus assumed
SMILES: CC[C@H](C)[C@H](NC(=O)[C@H](C)NC(=O)CNC(=O)[C@H](Cc1ccccc1)NC(=O)[C@H](CC(N)=O)NC(=O)[C@@H]1CCCN1C(=O)[C@H](CO)NC(=O)[C@H](CO)NC(=O)[C@H](Cc1c[nH]cn1)NC(=O)[C@H](CCCNC(=N)N)NC(=O)[C@H](CC(C)C)NC(=O)[C@H](Cc1ccccc1)NC(=O)[C@H](CC(N)=O)NC(=O)[C@H](C)NC(=O)[C@H](CC(C)C)NC(=O)[C@H](CCCNC(=N)N)NC(=O)[C@H](CCC(N)=O)NC(=O)[C@@H](NC(=O)[C@H](C)NC(=O)[C@@H]1CSSC[C@H](NC(=O)[C@@H](N)CCCCNC(=O)COCCOCCNC(=O)COCCOCCNC(=O)CC[C@H](NC(=O)CCCCCCCCCCCCCCCCCCC(=O)O)C(=O)O)C(=O)N[C@@H](CC(N)=O)C(=O)N[C@@H]([C@@H](C)O)C(=O)N[C@@H](C)C(=O)N[C@@H]([C@@H](C)O)C(=O)N1)[C@@H](C)O)C(=O)N1CCC[C@H]1C(=O)N[C@@H](CO)C(=O)N[C@@H](CO)C(=O)N[C@H](C(=O)N[C@@H](CC(N)=O)C(=O)N[C@H](C(=O)NCC(=O)N[C@@H](Cc1c[nH]cn1)C(=O)N[C@@H](CC(N)=O)C(=O)N[C@H](C(=O)N[C@@H](Cc1ccc(O)cc1)C(N)=O)[C@@H](C)O)C(C)C)[C@@H](C)O
notes: also called compound 97
Consider B1, for which the “Ratio hCT/hAmylin binding” value in assay [1] was 104. Besides, the 50% inhibitory concentration (IC50) in assay [2] turned out to be 0.0589 µM.

B2: N^ε1-[2-[2-[2-[[2-[2-[2-[[(4S)-4-carboxy-4-(19-carboxynonadecanoylamino)butanoyl]amino]ethoxy]ethoxy]acetyl]amino]ethoxy]ethoxy]acetyl]-[Arg17,Pro21,Pro27,Pro31 … (peptide)
peptide: K([AEEA-AEEA-γGlu-C20 diacid])CNTATCATQRLANFLRHSSPNFGAIPSSTPVGSNTY-NH2
modifications: disulfide 2-7; N-terminus assumed
SMILES: CC[C@H](C)[C@H](NC(=O)[C@H](C)NC(=O)CNC(=O)[C@H](Cc1ccccc1)NC(=O)[C@H](CC(N)=O)NC(=O)[C@@H]1CCCN1C(=O)[C@H](CO)NC(=O)[C@H](CO)NC(=O)[C@H](Cc1c[nH]cn1)NC(=O)[C@H](CCCNC(=N)N)NC(=O)[C@H](CC(C)C)NC(=O)[C@H](Cc1ccccc1)NC(=O)[C@H](CC(N)=O)NC(=O)[C@H](C)NC(=O)[C@H](CC(C)C)NC(=O)[C@H](CCCNC(=N)N)NC(=O)[C@H](CCC(N)=O)NC(=O)[C@@H](NC(=O)[C@H](C)NC(=O)[C@@H]1CSSC[C@H](NC(=O)[C@@H](N)CCCCNC(=O)COCCOCCNC(=O)COCCOCCNC(=O)CC[C@H](NC(=O)CCCCCCCCCCCCCCCCCCC(=O)O)C(=O)O)C(=O)N[C@@H](CC(N)=O)C(=O)N[C@@H]([C@@H](C)O)C(=O)N[C@@H](C)C(=O)N[C@@H]([C@@H](C)O)C(=O)N1)[C@@H](C)O)C(=O)N1CCC[C@H]1C(=O)N[C@@H](CO)C(=O)N[C@@H](CO)C(=O)N[C@H](C(=O)N1CCC[C@H]1C(=O)N[C@H](C(=O)NCC(=O)N[C@@H](CO)C(=O)N[C@@H](CC(N)=O)C(=O)N[C@H](C(=O)N[C@@H](Cc1ccc(O)cc1)C(N)=O)[C@@H](C)O)C(C)C)[C@@H](C)O
notes: also called compound 96
On to B2, for which the “Ratio hCT/hAmylin binding” value in assay [1] turned out to be 79.6. Further, the IC50 in assay [2] was found to be 0.0132 µM.
